Measurements from patent EP3470428A1 (Numab Innovation AG, dated 2019).
Values joined by “and” are separate entries in the source; they are usually repeats but may differ in a detail not shown here. Identical values can stand only once. Like-named read-outs stand apart in the source and are kept apart here.

B1: PRO966 (= PRO1052): 38_27_C05 sc01 scDb-i/33-03-G02 sc01 scDb-o/19-01-H04-sc03 scFv (other)
chain: DIQMTQSPSSLSASVGDRVTITCQASQSINDYLAWYQQKPGKAPKLLIYKASTLASGVPSRFSGSGSGTDFTLTISSLQPEDFATYYCQQGYIITDIDNVFGTGTKVTVLGGGGGSQVQLQESGPGLVKPSETLSLTCKVSGFSFNNDYDMCWIRQPPGKGLEWIGCIDTGDGSTYYASWAKGRVTISVDSSKNQFSLKLSSVTAADTAVYYCAREAASSSGYGMGYFDLWGQGTLVTVSSGGGGSGGGGSGGGGSGGGGSIQMTQSPSSLSASVGDRVTITCQSSQSVYDNNWLAWYQQKPGKAPKLLIYRASNLASGVPSRFSGSGSGTDFTLTISSLQPEDFATYYCQGTYLSSNWYWAFGTGTKVTVLGGGGGSQVQLQESGPGLVKPSETLSLTCKVSGFSFSSGYDMCWIRQPPGKGLEWIGCVVAGSVDITYYASWAKGRVTISVDSSKNQFSLKLSSVTAADTAVYYCARKDAYSDAFNLWGQGTLVTVSSGGGGSGGGGSIQMTQSPSSLSASVGDRVTITCQSSESVYSNNQLSWYQQKPGQPPKLLIYDASDLASGVPSRFSGSGSGTDFTLTISSLQPEDFATYYCAGGFSSSSDTAFGGGTKLTVLGGGGGSGGGGSGGGGSGGGGSEVQLVESGGGLVQPGGSLRLSCAASGFSLSSNAMGWVRQAPGKGLEYIGIISVGGFTYYASWAKGRFTISRDNSKNTVYLQMNSLRAEDTATYFCARDRHGGDSSGAFYLWGQGTLVTVSS
notes: Trispecific scTriabody (scDb-scFv)
B2: PRO997 (anti-PD-L1 scFv, CDR set of clone 37-20-B03 grafted on a VH4 framework) (scFv)
chain: DIQMTQSPSSLSASVGDRVTITCQASQSIGTYLAWYQQKPGKAPKLLIYRAFILASGVPSRFSGSGSGTDFTLTISSLQPEDFATYYCQSNFYSDSTTIGPNAFGTGTKVTVLGGGGGSGGGGSGGGGSGGGGSQVQLQESGPGLVKPSETLSLTCKVSGFSFNSDYWIYWIRQPPGKGLEWIGSIYGGSSGNTQYASWAQGRVTISVDSSKNQFSLKLSSVTAADTAVYYCARGYVDYGGATDLWGQGTLVTVSS
B3: PRO1058: 38_27_C05 sc01 scDb-i/33-03-G02 sc01 scDb-o/mxr HSA (23-13-A01-sc03, sk17sh4) (other)
chain: DIQMTQSPSSLSASVGDRVTITCQASQSINDYLAWYQQKPGKAPKLLIYKASTLASGVPSRFSGSGSGTDFTLTISSLQPEDFATYYCQQGYIITDIDNVFGTGTKVTVLGGGGGSQVQLQESGPGLVKPSETLSLTCKVSGFSFNNDYDMCWIRQPPGKGLEWIGCIDTGDGSTYYASWAKGRVTISVDSSKNQFSLKLSSVTAADTAVYYCAREAASSSGYGMGYFDLWGQGTLVTVSSGGGGSGGGGSGGGGSGGGGSIQMTQSPSSLSASVGDRVTITCQSSQSVYDNNWLAWYQQKPGKAPKLLIYRASNLASGVPSRFSGSGSGTDFTLTISSLQPEDFATYYCQGTYLSSNWYWAFGTGTKVTVLGGGGGSQVQLQESGPGLVKPSETLSLTCKVSGFSFSSGYDMCWIRQPPGKGLEWIGCVVAGSVDITYYASWAKGRVTISVDSSKNQFSLKLSSVTAADTAVYYCARKDAYSDAFNLWGQGTLVTVSSGGGGSGGGGSVVMTQSPSSLSASVGDRVTITCQASQIISSRSAWYQQKPGQPPKLLIYQASKLASGVPSRFSGSGSGTDFTLTISSLQPEDFATYYCQCTYIDSNFGAFGGGTKLTVLGGGGGSGGGGSGGGGSGGGGSEVQLVESGGGLVQPGGSLRLSCAASGFSFSSSYWICWVRQAPGKGLEWVGCVFTGDGTTYYASWAKGRFTISRDNSKNTVYLQMNSLRAEDTATYFCARPVSVYYYGMDLWGQGTLVTVSS
notes: as for B1
B4: PRO885: 38-02-A04 sc01 scDb-i/33-03-G02 sc01 scDb-o (bispecific antibody)
chain: DIQMTQSPSSLSASVGDRVTITCQASQSINDYLAWYQQKPGKAPKLLIYKASTLASGVPSRFSGSGSGTDFTLTISSLQPEDFATYYCQQGYIITDIDNVFGTGTKVTVLGGGGGSQVQLQESGPGLVKPSETLSLTCKVSGFSFSNSYWICWIRQPPGKGLEWIGCTFVGSSDSTYYANWAKGRVTISVDSSKNQFSLKLSSVTAADTAVYYCARHPSDAVYGYANNLWGQGTLVTVSSGGGGSGGGGSGGGGSGGGGSIQMTQSPSSLSASVGDRVTITCQASQSINNVLAWYQQKPGKAPKLLIYRASTLASGVPSRFSGSGSGTDFTLTISSLQPEDFATYYCQSSYGNYGDFGTGTKVTVLGGGGGSQVQLQESGPGLVKPSETLSLTCKVSGFSFSSGYDMCWIRQPPGKGLEWIGCVVAGSVDITYYASWAKGRVTISVDSSKNQFSLKLSSVTAADTAVYYCARKDAYSDAFNLWGQGTLVTVSS
notes: anti-PD-L1xCD137 scDb, CDR grafts of both domains
B5: PRO951: 38-27-C05 sc02 scDb-i/33-03-G02 sc01 scDb-o (bispecific antibody)
chain: DIQMTQSPSSLSASVGDRVTITCQASQSINDYLAWYQQKPGKAPKLLIYKASTLASGVPSRFSGSGSGTDFTLTISSLQPEDFATYYCQQGYIITDIDNVFGTGTKVTVLGGGGGSEVQLVESGGGLVQPGGSLRLSCAASGFSFNNDYDMCWVRQAPGKGLEWIGCIDTGDGSTYYASWAKGRFTISRDNSKNTVYLQMNSLRAEDTAVYYCAREAASSSGYGMGYFDLWGQGTLVTVSSGGGGSGGGGSGGGGSGGGGSIQMTQSPSSLSASVGDRVTITCQSSQSVYDNNWLAWYQQKPGKAPKLLIYRASNLASGVPSRFSGSGSGTDFTLTISSLQPEDFATYYCQGTYLSSNWYWAFGTGTKVTVLGGGGGSQVQLQESGPGLVKPSETLSLTCKVSGFSFSSGYDMCWIRQPPGKGLEWIGCVVAGSVDITYYASWAKGRVTISVDSSKNQFSLKLSSVTAADTAVYYCARKDAYSDAFNLWGQGTLVTVSS
notes: anti-PD-L1xCD137 scDb
B6: Urelumab (antibody, V domains shown)
VH: QVQLQQWGAGLLKPSETLSLTCAVYGGSFSGYYWSWIRQSPEKGLEWIGEINHGGYVTYNPSLESRVTISVDTSKNQFSLKLSSVTAADTAVYYCARDYGPGNYDWYFDLWGRGTLVTVSS
VL: EIVLTQSPATLSLSPGERATLSCRASQSVSSYLAWYQQKPGQAPRLLIYDASNRATGIPARFSGSGSGTDFTLTISSLEPEDFAVYYCQQRSNWPPALTFGGGTKVEIK

What was measured:
human serum albumin = target: T1, human serum albumin (human, UniProt P02768 25-609); test: SPR (Biacore T200); SA amine-coupled; pH 5.5
T1 construct: Amine-coupled to a CM5 chip; assay at pH 5.5; also called HSA; human SA

[1] = target: human PD-L1-Fc chimeric protein (human, UniProt Q9NZQ7 19-239); test: SPR (Biacore T200); PD-L1-Fc captured by anti-human Fc
[2] = target: T2, human PD-L1 expressed on cells (human, UniProt Q9NZQ7 19-290); test: cell-based or functional assay
[3] = target: T2, human PD-L1 expressed on cells; test: cell-based or functional assay; remark: listed apart in the source
biotinylated human PD-L1 [4] = target: T3, biotinylated human PD-L1 (human, UniProt Q9NZQ7 19-238, limits assumed, biotinylated); test: competition ELISA; coated human B7.1 as competitor; biotinylated PD-L1 pre-incubated with inhibitor
T3 construct: also called biotinylated PD-L1

biotinylated human PD-L1 [5] = target: T3, biotinylated human PD-L1; test: competition ELISA; coated human PD-1 as competitor; biotinylated human PD-L1 pre-incubated with inhibitor
[6] = target: T4, human CD137 expressed on cells (human, UniProt Q07011 24-255); test: cell-based or functional assay
[7] = target: T4, human CD137 expressed on cells; test: cell-based or functional assay; remark: listed apart in the source
[8] = target: T4, human CD137 expressed on cells; test: cell-based or functional assay; remark: listed apart in the source
[9] = target: T4, human CD137 expressed on cells; test: cell-based or functional assay; remark: listed apart in the source
[10] = target: T4, human CD137 expressed on cells; test: cell-based or functional assay; remark: listed apart in the source
[11] = target: T4, human CD137 expressed on cells; test: cell-based or functional assay; remark: listed apart in the source
[12] = target: T4, human CD137 expressed on cells; test: cell-based or functional assay; remark: listed apart in the source
[13] = target: T4, human CD137 expressed on cells; test: cell-based or functional assay; remark: listed apart in the source
[14] = target: T4, human CD137 expressed on cells; test: cell-based or functional assay; remark: listed apart in the source
[15] = target: T4, human CD137 expressed on cells; test: cell-based or functional assay; remark: listed apart in the source

| Binder | binding result (human serum albumin) | binding result [1] | IC50 (ng/ml), neutralization of PD-L1/PD-1 interaction, NFAT-luciferase reporter gene assay [2] | IC50 (biotinylated human PD-L1 [4]) | IC50 (biotinylated human PD-L1 [5]) | EC50 in ng/ml, CD137 activation, NFkB-luciferase Jurkat reporter assay, PD-L1 expressing CHO cells, 6h, + HSA [6] | EC50 in ng/ml, CD137 activation, NFkB-luciferase Jurkat reporter assay, PD-L1 expressing CHO cells, 24h, + HSA [7] | EC50 in ng/ml, CD137 activation, NFkB-luciferase Jurkat reporter assay, CHO-PD-L1 cells [9] | EC50 in ng/ml, CD137 activation, NFkB-luciferase Jurkat reporter assay, CHO-PD-L1 cells [10] | EC50 in ng/ml, CD137 activation, NFkB-luciferase Jurkat reporter assay, HCC827 cells without IFNg [11] | EC50 in ng/ml, CD137 activation, NFkB-luciferase Jurkat reporter assay, HCC827 cells stimulated with IFNg [12] | EC50 in ng/ml, CD137 activation, NFkB-luciferase Jurkat reporter assay, PD-L1 expressing CHO cells, 6h [6] | EC50 in ng/ml, CD137 activation, NFkB-luciferase Jurkat reporter assay, PD-L1 expressing CHO cells, 24h [7] | EC50 in ng/ml, CD137 activation, NFkB-luciferase Jurkat reporter assay, HCC827 with IFNy stimulation, 24h [13] | EC50 in ng/ml, CD137 activation, NFkB-luciferase Jurkat reporter assay, HCC827 without IFNy stimulation, 24h [13] | max. activation (%), NF-kB reporter gene, CHO-PD-L1; HSA: no [8] | also measured |
| --- | --- | --- | --- | --- | --- | --- | --- | --- | --- | --- | --- | --- | --- | --- | --- | --- | --- |
| B1 | binds | binds |  |  |  |  |  |  |  |  |  |  |  |  |  |  |  |
| B2 |  |  | 11.1 ng/mL | 0.00636 µg/mL | 0.0005 µg/mL |  |  |  |  |  |  |  |  |  |  |  | EC50 in ng/ml, IL-2 secretion, PBMC stimulated with SEA [3]: 40.9 ng/mL; fold higher affinity against the STR graft of clone 33-03-G02 [1]: ~2 fold |
| B3 | binds | binds |  |  |  | 70.9 ng/mL | 121 ng/mL |  |  |  |  |  |  |  |  |  | max. activation (%), NF-kB reporter gene, CHO-PD-L1; HSA: yes, 24h [8]: 36.2% |
| B4 |  |  | 137 ng/mL | 0.0122 µg/mL | 0.00835 µg/mL | 7.92 ng/mL | 14.8 ng/mL | 11.7 ng/mL | 5.13 ng/mL and 4.86 ng/mL and 6.3 ng/mL | 11.5 ng/mL and 13.1 ng/mL and 13 ng/mL | 9.27 ng/mL and 8.88 ng/mL and 9.23 ng/mL | 7.84 ng/mL | 13.8 ng/mL | 7.51 ng/mL | 9.52 ng/mL | 499% | EC50 (ng/ml), IL-2 secretion by PBMC; anti-CD3 1 ug/ml, 50000 PD-L1 expressing CHO cells/well [14]: 12.8 ng/mL; EC50 (ng/ml), IL-2 secretion by PBMC; anti-CD3 1 ug/ml, 100000 PD-L1 expressing CHO cells/well [14]: 86.2 ng/mL; EC50 (ng/ml), IL-2 secretion by PBMC; anti-CD3 1 ug/ml, 200000 PD-L1 expressing CHO cells/well [14]: 80.6 ng/mL; EC50 (ng/ml), IL-2 secretion by PBMC; anti-CD3 2 ug/ml, 50000 PD-L1 expressing CHO cells/well [14]: 52 ng/mL; EC50 (ng/ml), IL-2 secretion by PBMC; anti-CD3 2 ug/ml, 100000 PD-L1 expressing CHO cells/well [14]: 41.9 ng/mL; EC50 (ng/ml), IL-2 secretion by PBMC; anti-CD3 2 ug/ml, 200000 PD-L1 expressing CHO cells/well [14]: 30.1 ng/mL; max. activation (%), NF-kB reporter gene, HCC827 +IFNg; HSA: no [8]: 134%; max. activation (%), NF-kB reporter gene, HCC827 -IFNg; HSA: no [8]: 111%; EC50 in ng/ml, IL-2 secretion, PBMC stimulated with SEA [15]: 39.9 ng/mL |
| B5 |  |  | 88.5 ng/mL | 0.0093 µg/mL | 0.0095 µg/mL |  |  | 33.7 ng/mL |  |  |  |  |  |  |  | 432% |  |
| B6 |  |  |  |  |  | 77.7 ng/mL | 78.2 ng/mL | 79.1 ng/mL | 79.5 ng/mL and 104 ng/mL and 86.5 ng/mL | 212 ng/mL and 110 ng/mL and 112 ng/mL | 114 ng/mL and 145 ng/mL and 108 ng/mL | 56.5 ng/mL | 46.6 ng/mL | 52.8 ng/mL | 47.5 ng/mL |  |  |
